Data published in patent US20230084763A1 (published 2023).
Where a chain is given by its changes, count along the chain named.

T1: CD20 (UniProt P11836 1-297)
T1 chain: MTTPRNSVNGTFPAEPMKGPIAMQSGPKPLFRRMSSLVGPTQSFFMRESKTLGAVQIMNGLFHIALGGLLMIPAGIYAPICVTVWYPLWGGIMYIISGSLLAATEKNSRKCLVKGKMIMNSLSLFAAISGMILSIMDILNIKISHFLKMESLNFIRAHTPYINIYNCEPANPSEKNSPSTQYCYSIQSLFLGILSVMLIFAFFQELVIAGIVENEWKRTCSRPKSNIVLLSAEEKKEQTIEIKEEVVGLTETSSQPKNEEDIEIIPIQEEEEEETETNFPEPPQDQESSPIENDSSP

B1: Leu16 (antibody, V domains shown)
VH: EVQLQQSGAELVKPGASVKMSCKASGYTFTSYNMHWVKQTPGQGLEWIGAIYPGNGDTSYNQKFKGKATLTADKSSSTAYMQLSSLTSEDSADYYCARSNYYGSSYWFFDVWGAGTTVTVSS
VL: DIVLTQSPAILSASPGEKVTMTCRASSSVNYMDWYQKKPGSSPKPWIYATSNLASGVPARFSGSGSGTSYSLTISRVEAEDAATYYCQQWSFNPPTFGGGTKLEIK
B2: Rituximab (antibody, V domains shown)
VH: QVQLQQPGAELVKPGASVKMSCKASGYTFTSYNMHWVKQTPGRGLEWIGAIYPGNGDTSYNQKFKGKATLTADKSSSTAYMQLSSLTSEDSAVYYCARSTYYGGDWYFNVWGAGTTVTVSS
VL: B1 VL with D1Q, T5S, N30S, M32I, D33H, Y35F, K37Q, A59V, S91T, F92S
B3: Hybrid (antibody, V domains shown)
VH: B1 VH with E1Q, S7P, Q43R, D93V
VL: B1 VL with D1Q, T5S, Y35F, K37Q, A59V

Legend:
[1] = biological target: T1, CD20; assay: bio-layer interferometry; scFv, Run 1
[2] = biological target: T1, CD20; assay: bio-layer interferometry; scFv, Run 2
[3] = biological target: T1, CD20; assay: bio-layer interferometry; scFv, Run 3
[4] = biological target: T1, CD20; assay: bio-layer interferometry; scFv, Avg of 3 runs

Binder	Kd [1]	Kd [2]	Kd [3]	Kd [4]
B1	157 nM	127 nM	131 nM	138 nM
B2			122 nM	119 nM
B3	75.5 nM	95.5 nM	82.2 nM	84.4 nM
